Measured values: patent publication US20220125947A1 (published 2022)

Columns and labels:
[1] = biological target: T1, T cell receptor (TCR) Vγ9 (TRGV9) (human, UniProt Q99603 21-122); experiment: cell-based or functional assay; for CD25+ (Vg9+ cells), flow staining: test concentration or dose not given here; for CD71+ (Vg9+ cells), flow staining: test concentration or dose not given here
T1 sequence (looked up): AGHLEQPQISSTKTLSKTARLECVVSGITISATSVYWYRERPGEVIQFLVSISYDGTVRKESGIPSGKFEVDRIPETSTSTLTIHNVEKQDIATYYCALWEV

[2] = biological target: T2, T cell receptor (TCR) Vγ9 (TRGV9) (human, UniProt Q99603 21-122); experiment: cell-based or functional assay; for CD25+ (Vg9+ cells), flow staining: test concentration or dose not given here; for CD71+ (Vg9+ cells), flow staining: test concentration or dose not given here
T2 chain (looked up): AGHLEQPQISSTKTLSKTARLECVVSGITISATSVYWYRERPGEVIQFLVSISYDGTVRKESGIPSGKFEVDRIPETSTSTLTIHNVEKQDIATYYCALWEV

| CD25+ (Vg9+ cells), flow staining [1] [%] | CD71+ (Vg9+ cells), flow staining [1] [%] | Granzyme B, Luminex (supernatant) [1] | IFNγ, Luminex (supernatant) [1] | IL6, Luminex (supernatant) [1] | TNFα, Luminex (supernatant) [1] | Vg9 T cell %, flow staining [1] [%] | CD25+ (Vg9+ cells), flow staining [2] [%] | CD71+ (Vg9+ cells), flow staining [2] [%] | Granzyme B, Luminex (supernatant) [2] | IFNγ, Luminex (supernatant) [2] | IL6, Luminex (supernatant) [2] | TNFα, Luminex (supernatant) [2] | Vg9 T cell %, flow staining [2] [%] | Binder |
| --- | --- | --- | --- | --- | --- | --- | --- | --- | --- | --- | --- | --- | --- | --- |
|  |  |  |  |  |  |  | 37 | 98.1 | 4120 | 2000 | 613 | 390 | 5 | VG9B428 (antibody, human IgG1, kappa) heavy: not shown light: EIVMTQSPSSVSASVGDRVTITCRASQGINSWLAWYQQKPGNAPKLLIYAASSLQSGVPSRFSGIGSGTDFIFTISSLQPEDFASYYCQQANSFPWTFGQGTKVEIKRTVAAPSVFIFPPSDEQLKSGTASVVCLLNNFYPREAKVQWKVDNALQSGNSQESVTEQDSKDSTYSLSSTLTLSKADYEKHKVYACEVTHQGLSSPVTKSFNRGEC |
|  |  |  |  |  |  |  | 37.5 | 96.2 | 2520 | 1490 | 372 | 125 | 10.7 | VG9B430 (antibody, human IgG1, kappa, V domains shown) VH: EVQLLESGGGLVKPGGSLRLSCSASGFTFSSYDMNWVRQAPGKGLEWVSSISSSSSYIYYADSVKGRFTISRDNAKNSLYLQMNSLRAEDTAVYHCARDVGVTTDYYYYGMDVWGQGTMVTVSS VL: EIVLTQSPGTLSLSPGDRATLSCRASQSVASSYLAWYQQKPGQSPRLLIYGASSRATGIPDRFSGSGSGTDFTLTISRLEPEDFAVYYCQQYGSSPPYTFGQGTKLEIKR |
| 25.8 | 91.6 | 2150 | 1250 | 816 | 583 | 3 |  |  |  |  |  |  |  | VG9B429 (antibody, human IgG1, kappa) heavy: not shown light: DIQMTQSPSSVSASVGDRVTITCRASQGINSWLAWYQQKPGNAPKLLIYAASSLQSGVPSRFSGIGSGTDFIFTISSLQPEDFASYYCQQANSFPWTFGQGTRLEIKRTVAAPSVFIFPPSDEQLKSGTASVVCLLNNFYPREAKVQWKVDNALQSGNSQESVTEQDSKDSTYSLSSTLTLSKADYEKHKVYACEVTHQGLSSPVTKSFNRGEC |
| 24.8 | 88.1 | 1490 | 476 | 219 | 186 | 4 |  |  |  |  |  |  |  | VG9B414 (antibody, human IgG1, kappa) heavy: not shown light: EIVMTQSPSSVSASVGDRVTITCRASQGINSWLAWYQQKPGNAPKLLIYAASSLQSGVPSRFSGIGSGTDFIFTISSLQPEDFASYYCQQANSFPWTFGQGTRLEIKRTVAAPSVFIFPPSDEQLKSGTASVVCLLNNFYPREAKVQWKVDNALQSGNSQESVTEQDSKDSTYSLSSTLTLSKADYEKHKVYACEVTHQGLSSPVTKSFNRGEC |
| 15.8 | 86.9 | 1060 | 303 | 166 | 61 | 3.7 |  |  |  |  |  |  |  | VG9B195 (antibody, human IgG1, lambda, V domains shown) VH: EVQLVESGGGLVKPGGSLRLSCAASGFTFSPYTMNWVRQAPGKGLEWVSSISSSSSYMYYADSVKGRFTISRDNAKNSLYLQMNSLRAEDTAVYYCARDGDLVGPTYYFDYWGQGTLVTVSS VL: SYELMQPPSVSVSPGQTASITCSGDKLGDKYACWYQQKPGQSPVLVIYQHNKRPSGIPERFSGSNSGKTATLTISGTQAMDEADYYCQAWDSTTVVFGGGTKLTVLG |

The remaining lines, values behind:

| Binder | CD25+ (Vg9+ cells), flow staining [1] [%] | CD71+ (Vg9+ cells), flow staining [1] [%] | Granzyme B, Luminex (supernatant) [1] | IFNγ, Luminex (supernatant) [1] | IL6, Luminex (supernatant) [1] | TNFα, Luminex (supernatant) [1] | Vg9 T cell %, flow staining [1] [%] | CD25+ (Vg9+ cells), flow staining [2] [%] | CD71+ (Vg9+ cells), flow staining [2] [%] | Granzyme B, Luminex (supernatant) [2] | IFNγ, Luminex (supernatant) [2] | IL6, Luminex (supernatant) [2] | TNFα, Luminex (supernatant) [2] | Vg9 T cell %, flow staining [2] [%] |
| --- | --- | --- | --- | --- | --- | --- | --- | --- | --- | --- | --- | --- | --- | --- |
| VG9B54 (antibody, human IgG1, kappa, V domains shown) VH: EVQLVESGGGLVKPGGSLRLSCAASGFAFSSYSLTWVRQAPGKGLEWVSSISSSSSYIFYADSVKGRFTISRDNAKNSLYLQMNSLRAEDTAVYYCATDGELGPFDYWGQGTTVTVSS VL: EIVMTQSPGTLSLSPGERATLSCRASQSVSSSYLAWFQQKPGQAPRRLIYGASSRATGIPDRFSGSGSGTDFTLTISRLEPEDFAVYYCQQYGRSPLTFGGGTKVEIKR | 32.4 | 93.3 | 3100 | 1600 | 761 | 6100 | 10.5 |  |  |  |  |  |  |  |
| VG9B121 (antibody, human IgG1, kappa, V domains shown) VH: EVQLVESGGGLVKPGGSLRLSCVASGFTFSDYAMDWVRQAPGKGLDWISSISSTSNYIFYADSVKGRFTISRDNAKNSLYLQMNSLRVEDSAVYYCANSYNWNYGGAFDIWGQGTMVTVSS VL: DIQMTQSPGTLSSSPGERATLSCRASQSVSSSYFAWYQQKPGRAPRLLIYGASSRATGIPDRFSGSGSGTDFTLTISRLEPEDFAVYFCQQYGRSPLTFGGGTKVEIKR | 50.9 | 98.7 | 1350 | 429 | 161 | 96 | 16.1 |  |  |  |  |  |  |  |
| VG9B98 (antibody, human IgG1, kappa, V domains shown) VH: EVQLVQSGGDLVKSGGSLRLSCAASGFTFSSYSMYWVRQAPGKGLEWVSSIGSSSTYIFYADSVKGRFTISRDNAMTSLYLQMNRLGAEDSAVYYCARDGELGPFEYWGQGTLVTVSS VL: EIVLTQSPGTLSLSPGERATLSCRASQSVSTSYLAWFQQKPGQAPRLLIFGTSSRATGIPDRFSGSGSGTDFTLTISRLEPEDFAVYHCLQYGRSPLTFGGGTKVDIKR |  |  |  |  |  |  |  | 29.4 | 90.5 | 1420 | 305 | 294 | 2010 | 7.2 |
| VG9B73 (antibody, human IgG1, kappa, V domains shown) VH: EVQLVQSGGGLVKPGGSLRLSCAASGFTFSNYDMNWVRQAPGKGLEWVSSISSSSSYIYYADSVKGRFTISRDNARNSLFLQMSSLRAEDTAVYYCAREIGVTGTTYYQDYGMDVWGQGTTVTVSS VL: EIVMTQSPGTLSLSPGERATLSCRASQSFSSNYLAWYQQKPGQAPRLLIYGASSRATGIPDRFSGSGSGTDFTLTISRLEPEDFALYYCQQYGSSPPFTFGQGTKVEIKR |  |  |  |  |  |  |  | 30.6 | 94.1 | 3370 | 1050 | 359 | 136 | 13.8 |
| VG9B133 (antibody, human IgG1, kappa, V domains shown) VH: EVQLVESGGGLVKPGGSLRLSCAAAGFTFSNYDMNWVRQVPGKGLEWVSSISSSSSYIYYADSVKGRFTISRDNAKNSLYLQMNTLRAEDTAVYYCARDLGITGTTMDYYYGMDVWGQGTMVTVSS VL: not shown |  |  |  |  |  |  |  | 21.8 | 91.4 | 3480 | 1170 | 478 | 123 | 5.8 |
| VG9B80 (antibody, human IgG1, kappa, V domains shown) VH: EVQLVQSGGGLVKSGGSLRLSCAASGFTFSTYSMNWVRQAPGKGLEWVSSISSSSSYIFYADSVKGRIIISRDNAKNSLYLQMNSVRADDTAVYYCAKDGELGVFDYWGQGTLVTVSS VL: EIVLTQSPGTLSLSAGERATLSCRASQSISSSYLAWYQQKPGQAPRVLIYGPSGRATGIPDRFRGSGSGTDFTLTISRLEPEDFAVYYCQQFGRSPLTFGGGTKVEIKR | 49.6 | 98.3 | 3010 | 1360 | 385 | 4910 | 5.2 |  |  |  |  |  |  |  |
| VG9B140 (antibody, human IgG1, kappa, V domains shown) VH: EVQLVESGGGLVKPGGSLRLSCAGSGFTFRSYDMNWVRQAPGKGLEWVSSISTSSGYIYYADSVKGRFTISRDNAKNSLSLQMNSLRAEDTAVFYCARDRGIAVAGDYYYGMDVWGQGTMVTVSS VL: not shown | 20.4 | 70.6 | 2160 | 796 | 602 | 3520 | 3.9 |  |  |  |  |  |  |  |
| VG9B46 (antibody, human IgG1, kappa, V domains shown) VH: EVQLVESGGGLVKPGGSLRLSCEASGFTFSINSMNWVRQAPGKGLEWVSSISSTSDYIFNADSVKGRFTISRDNAKNSLYLQMNSLRAEDTAVYYCVRDDVFGAFDIWGQGTMVTVSS VL: EIVLTQSPGTLSLSPGERATLSCRTSQSVSRSYLGWYQQKPGQPPRLLIFGSSSRATGIPDRFSGSGSGTDFTLTISRLEPEDFAVYYCQQYSRSPLTFGGGTKVDIKR | 37.9 | 95.8 | 3170 | 1150 | 375 | 5260 | 4.4 |  |  |  |  |  |  |  |
| VG9B69 (antibody, human IgG1, kappa, V domains shown) VH: EVQLVESGGGLVKPGGSLRLSCAASGFTFSSYDINWVRQAPGKGLEWVSSITSSSYYIYYADSVKGRFTISRDNAKNSLYLQMNSLRAEDTAVYYCARDLGVRGVDYYYYGLDVWGQGTMVTVSS VL: not shown |  |  |  |  |  |  |  | 40.4 | 97.7 | 3240 | 2070 | 591 | 1100 | 8.8 |
| VG9B104 (antibody, human IgG1, kappa, V domains shown) VH: EVQLVESGGGLVKPGGSLRLSCAASGFTFSVYSMNWVRQAPGKGLEWVSSIGSSSSYIFYADSVKGRFTISRDNAKNSLYLQMNSLRAEDTAVYYCGRDHDYGGLDYWGQGTLVTVSS VL: EIVLTQSPGTLSLSPGERATLSCRASQSVSSSYLAWYQQKPGQAPRLLIYGPSNRATDIPDRFSGTGSGTDFTLTISRLEPEDFAVYYCQQYGRSPLTFGGGTKVEIKR |  |  |  |  |  |  |  | 41.4 | 95.2 | 5290 | 2440 | 1090 | 4130 | 5.1 |
